The record followed here is the supplement of paper PMC10724198.

± gives the standard deviation of the averaged measurements.

Data set [1] concerns Saccharomyces cerevisiae. The experiment in a line: protein stability index of tFT-peptide fusion (C-terminal peptide) (PSI (0-1 scale)); higher = more stable (slower turnover). How it is done: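 MPS profiling in S. cerevisiae of the tFT-X12 degron library: putative degron peptides plus stable controls, 12 aa, fused to the C-terminus of a sfGFP-mCherry timer. Cells are FACS-sorted into 8 mCherry/sfGFP bins and deep-sequenced. PSI runs from 0 (unstable) to 1 (stable). Backgrounds are wild type, das1Δ and doa10Δ at 30 °C, and wild type, das1Δ, cdc34-1 and cdc53-1 at 37 °C; 2-3 technical replicates each.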

Data set [2] concerns Saccharomyces cerevisiae. The data set is described as above. The conditions noted are these: genetic background: wild type; temperature: 30 C.
The mark [3] stands for this setting: genetic background: cdc34-1, temperature: 37 C.
Setting [4] is: genetic background: cdc53-1, temperature: 37 C.
The mark [5] stands for this setting: genetic background: das1 deletion, temperature: 30 C.
The mark [6] stands for this setting: genetic background: das1 deletion, temperature: 37 C.
[7] abbreviates: genetic background: doa10 deletion, temperature: 30 C.
Setting [8] is: genetic background: wild type, temperature: 30 C.
[9] abbreviates: genetic background: wild type, temperature: 37 C.
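Also: PSI is a weighted mean of sequencing reads over stability bins, variants kept only with over 10 reads, mCherry proximal and sfGFP distal, peptide attached via GGGS linker.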

Take WLVVGGVVLLVV: the protein stability index in the data set on Saccharomyces cerevisiae [1] (setting [3]) was 0.246 ± 0.029; with Saccharomyces cerevisiae [1] (setting [4]) it was 0.28548 ± 0.00015; in the data set with Saccharomyces cerevisiae [1] (setting [5]), 0.213 ± 0.033; in the data set on Saccharomyces cerevisiae [1] (setting [6]), 0.395 ± 0.009; in the data set with Saccharomyces cerevisiae [1] (setting [7]) it was 0.175 ± 0.0046; in the data set with Saccharomyces cerevisiae [1] (setting [8]), 0.197 ± 0.026. In addition, the protein stability index in the data set on Saccharomyces cerevisiae [1] (setting [9]) came to 0.37 ± 0.0047; in the data set with Saccharomyces cerevisiae [2], 0.252 ± 0.0089.

Take WRLRIAAVVRSS: the protein stability index in the data set on Saccharomyces cerevisiae [1] (setting [3]) worked out at 0.556 ± 0.047; with Saccharomyces cerevisiae [1] (setting [4]) it was 0.655 ± 0.031; with Saccharomyces cerevisiae [1] (setting [5]), 0.586 ± 0.011; in the data set on Saccharomyces cerevisiae [1] (setting [6]) it was 0.6471 ± 0.0012; in the data set with Saccharomyces cerevisiae [1] (setting [7]), 0.123 ± 0.0017; with Saccharomyces cerevisiae [1] (setting [8]) it was 0.142 ± 0.021. Also, the values for the protein stability index in the data set with Saccharomyces cerevisiae [1] (setting [9]) and in the data set with Saccharomyces cerevisiae [2] were 0.287 ± 0.016 and 0.281 ± 0.028, respectively.

For the sequence WRVVVSCALHVC, the protein stability index in the data set on Saccharomyces cerevisiae [1] (setting [3]) amounted to 0.123 ± 0.014; with Saccharomyces cerevisiae [1] (setting [4]), 0.167 ± 0.0054; in the data set on Saccharomyces cerevisiae [1] (setting [5]) it was 0.169 ± 0.017; with Saccharomyces cerevisiae [1] (setting [6]), 0.274 ± 0.0034; in the data set with Saccharomyces cerevisiae [1] (setting [7]) it was 0.0395 ± 0.017; with Saccharomyces cerevisiae [1] (setting [8]), 0.0423 ± 0.009. In addition, the protein stability index in the data set with Saccharomyces cerevisiae [1] (setting [9]) is 0.0863 ± 0.026; in the data set on Saccharomyces cerevisiae [2] it was 0.085736 ± 1.1e-05.

In the case of WSCFLLLLSLSL, the protein stability index was 0.424 ± 0.056 in the data set on Saccharomyces cerevisiae [1] (setting [3]); 0.4452 ± 0.0035 in the data set with Saccharomyces cerevisiae [1] (setting [4]); 0.417 ± 0.039 in the data set with Saccharomyces cerevisiae [1] (setting [5]); 0.5236 ± 0.0051 in the data set on Saccharomyces cerevisiae [1] (setting [6]); 0.482 ± 0.013 in the data set on Saccharomyces cerevisiae [1] (setting [7]); 0.411 ± 0.011 with Saccharomyces cerevisiae [1] (setting [8]). Further, the protein stability index was determined as 0.496 ± 0.011 with Saccharomyces cerevisiae [1] (setting [9]) and 0.45 ± 0.0067 in the data set with Saccharomyces cerevisiae [2].

Turning to WSFAPRLRCSYL, the protein stability index in the data set with Saccharomyces cerevisiae [1] (setting [3]) turned out to be 0.927 ± 0.0095; with Saccharomyces cerevisiae [1] (setting [4]) it was 0.925 ± 0.012; in the data set on Saccharomyces cerevisiae [1] (setting [5]), 0.784 ± 0.029; with Saccharomyces cerevisiae [1] (setting [6]), 0.883 ± 0.012; with Saccharomyces cerevisiae [1] (setting [7]), 0.7642 ± 0.004; in the data set with Saccharomyces cerevisiae [1] (setting [8]), 0.792 ± 0.048. The values for the protein stability index with Saccharomyces cerevisiae [1] (setting [9]) and with Saccharomyces cerevisiae [2] were 0.878 ± 0.029 and 0.809 ± 0.055, respectively.

On to WSMSSPPLLLAS, for which the protein stability index was found to be 0.314 ± 0.014 in the data set on Saccharomyces cerevisiae [1] (setting [3]); 0.301 ± 0.017 in the data set with Saccharomyces cerevisiae [1] (setting [4]); 0.272 ± 0.017 with Saccharomyces cerevisiae [1] (setting [5]); 0.377 ± 0.0019 with Saccharomyces cerevisiae [1] (setting [6]); 0.22 ± 0.0085 with Saccharomyces cerevisiae [1] (setting [7]); 0.276 ± 0.013 in the data set with Saccharomyces cerevisiae [1] (setting [8]). In addition, the protein stability index in the data set on Saccharomyces cerevisiae [1] (setting [9]) came to 0.349 ± 0.019; with Saccharomyces cerevisiae [2], 0.36 ± 0.0058.

For WVIWFFVAACLR, the protein stability index in the data set with Saccharomyces cerevisiae [1] (setting [3]) is 0.219 ± 0.006; in the data set with Saccharomyces cerevisiae [1] (setting [4]), 0.24 ± 0.018; with Saccharomyces cerevisiae [1] (setting [5]), 0.209 ± 0.024; with Saccharomyces cerevisiae [1] (setting [6]), 0.347 ± 0.025; in the data set on Saccharomyces cerevisiae [1] (setting [7]), 0.239 ± 0.0077; in the data set with Saccharomyces cerevisiae [1] (setting [8]) it was 0.212 ± 0.022. In addition, the protein stability index with Saccharomyces cerevisiae [1] (setting [9]) was 0.311 ± 0.0079; with Saccharomyces cerevisiae [2] it was 0.3339 ± 0.00096.

Turning to WVVVGWVGVGFR, the protein stability index in the data set on Saccharomyces cerevisiae [1] (setting [3]) amounted to 0.508 ± 0.029; in the data set on Saccharomyces cerevisiae [1] (setting [4]) it was 0.548 ± 0.038; in the data set with Saccharomyces cerevisiae [1] (setting [5]), 0.383 ± 0.027; in the data set on Saccharomyces cerevisiae [1] (setting [6]), 0.5747 ± 0.0021; in the data set on Saccharomyces cerevisiae [1] (setting [7]) it was 0.361 ± 0.019; with Saccharomyces cerevisiae [1] (setting [8]), 0.378 ± 0.016. The protein stability index with Saccharomyces cerevisiae [1] (setting [9]) is 0.55387 ± 0.00053; with Saccharomyces cerevisiae [2] it was 0.445 ± 0.029.

On to WVVWVLVGGFGG, for which the protein stability index with Saccharomyces cerevisiae [1] (setting [3]) was determined as 0.299 ± 0.022; with Saccharomyces cerevisiae [1] (setting [4]), 0.42448 ± 0.00021; in the data set with Saccharomyces cerevisiae [1] (setting [5]) it was 0.277 ± 0.036; in the data set with Saccharomyces cerevisiae [1] (setting [6]), 0.4813 ± 0.0047; in the data set with Saccharomyces cerevisiae [1] (setting [7]) it was 0.232 ± 0.0043; in the data set with Saccharomyces cerevisiae [1] (setting [8]), 0.266 ± 0.021. For the same sequence, the protein stability index in the data set with Saccharomyces cerevisiae [1] (setting [9]) came to 0.449 ± 0.03; in the data set with Saccharomyces cerevisiae [2] it was 0.384 ± 0.032.

For the sequence WVVWWFACVFGV, the protein stability index with Saccharomyces cerevisiae [1] (setting [3]) was 0.346 ± 0.009; in the data set on Saccharomyces cerevisiae [1] (setting [4]) it was 0.404 ± 0.0089; in the data set with Saccharomyces cerevisiae [1] (setting [5]), 0.286 ± 0.033; in the data set with Saccharomyces cerevisiae [1] (setting [6]) it was 0.429 ± 0.019; with Saccharomyces cerevisiae [1] (setting [7]), 0.264 ± 0.008; with Saccharomyces cerevisiae [1] (setting [8]), 0.28 ± 0.019. The values for the protein stability index in the data set on Saccharomyces cerevisiae [1] (setting [9]) and in the data set on Saccharomyces cerevisiae [2] were 0.413 ± 0.0073 and 0.309 ± 0.049, respectively.

In the case of WVYVFVSLFFVV, the protein stability index in the data set on Saccharomyces cerevisiae [1] (setting [3]) came to 0.185 ± 0.0071; in the data set on Saccharomyces cerevisiae [1] (setting [4]), 0.2552 ± 0.0011; in the data set on Saccharomyces cerevisiae [1] (setting [5]), 0.204 ± 0.029; in the data set on Saccharomyces cerevisiae [1] (setting [6]), 0.347 ± 0.013; in the data set on Saccharomyces cerevisiae [1] (setting [7]) it was 0.196 ± 0.017; in the data set with Saccharomyces cerevisiae [1] (setting [8]), 0.17 ± 0.018. Further, the figures for the protein stability index in the data set on Saccharomyces cerevisiae [1] (setting [9]) and in the data set with Saccharomyces cerevisiae [2] were 0.289 ± 0.0062 and 0.263 ± 0.0029, respectively.

As to WYLLCESCLLCL, the protein stability index amounted to 0.534 ± 0.021 in the data set with Saccharomyces cerevisiae [1] (setting [3]); 0.536 ± 0.0079 in the data set on Saccharomyces cerevisiae [1] (setting [4]); 0.406 ± 0.025 in the data set on Saccharomyces cerevisiae [1] (setting [5]); 0.562 ± 0.011 with Saccharomyces cerevisiae [1] (setting [6]); 0.39 ± 0.013 in the data set with Saccharomyces cerevisiae [1] (setting [7]); 0.408 ± 0.025 in the data set with Saccharomyces cerevisiae [1] (setting [8]). For the same sequence, the protein stability index is 0.558 ± 0.0046 in the data set with Saccharomyces cerevisiae [1] (setting [9]) and 0.494 ± 0.0075 in the data set on Saccharomyces cerevisiae [2].

Take WYVRVYVLSVES: the protein stability index worked out at 0.136 ± 0.021 in the data set on Saccharomyces cerevisiae [1] (setting [3]); 0.176 ± 0.028 with Saccharomyces cerevisiae [1] (setting [4]); 0.186 ± 0.029 with Saccharomyces cerevisiae [1] (setting [5]); 0.3115 ± 0.0015 with Saccharomyces cerevisiae [1] (setting [6]); 0.137 ± 0.0079 in the data set on Saccharomyces cerevisiae [1] (setting [7]); 0.168 ± 0.018 in the data set with Saccharomyces cerevisiae [1] (setting [8]). For the same sequence, the protein stability index turned out to be 0.264 ± 0.022 in the data set with Saccharomyces cerevisiae [1] (setting [9]) and 0.237 ± 0.019 in the data set with Saccharomyces cerevisiae [2].

As for YCAAVCFWGLYC, the protein stability index with Saccharomyces cerevisiae [1] (setting [3]) came out at 0.522 ± 0.015; in the data set with Saccharomyces cerevisiae [1] (setting [4]) it was 0.654 ± 0.023; in the data set with Saccharomyces cerevisiae [1] (setting [5]), 0.541 ± 0.029; in the data set on Saccharomyces cerevisiae [1] (setting [6]), 0.668 ± 0.012; in the data set with Saccharomyces cerevisiae [1] (setting [7]), 0.13 ± 0.0034; with Saccharomyces cerevisiae [1] (setting [8]) it was 0.154 ± 0.013. Further, the protein stability index with Saccharomyces cerevisiae [1] (setting [9]) is 0.233 ± 0.011; in the data set on Saccharomyces cerevisiae [2], 0.242 ± 0.024.

On to YDVQIEFCVVEV, for which the protein stability index in the data set on Saccharomyces cerevisiae [1] (setting [3]) was 0.601 ± 0.035; with Saccharomyces cerevisiae [1] (setting [4]), 0.57 ± 0.019; in the data set on Saccharomyces cerevisiae [1] (setting [5]), 0.365 ± 0.03; in the data set on Saccharomyces cerevisiae [1] (setting [6]) it was 0.5694 ± 0.0029; in the data set on Saccharomyces cerevisiae [1] (setting [7]) it was 0.347 ± 0.004; in the data set with Saccharomyces cerevisiae [1] (setting [8]), 0.379 ± 0.017. For the same sequence, the results for the protein stability index with Saccharomyces cerevisiae [1] (setting [9]) and in the data set with Saccharomyces cerevisiae [2] were 0.547 ± 0.019 and 0.442 ± 0.0093, respectively.

Regarding YFFFFLHFNFAF, the protein stability index came out at 0.145 ± 0.062 in the data set on Saccharomyces cerevisiae [1] (setting [3]); 0.169 ± 0.036 in the data set with Saccharomyces cerevisiae [1] (setting [4]); 0.246 ± 0.023 with Saccharomyces cerevisiae [1] (setting [5]); 0.35 ± 0.0091 in the data set with Saccharomyces cerevisiae [1] (setting [6]); 0.313 ± 0.034 in the data set on Saccharomyces cerevisiae [1] (setting [7]); 0.225 ± 0.059 with Saccharomyces cerevisiae [1] (setting [8]). For the same sequence, the protein stability index was found to be 0.267 ± 0.021 in the data set on Saccharomyces cerevisiae [1] (setting [9]) and 0.2803 ± 0.002 in the data set with Saccharomyces cerevisiae [2].

Regarding YFFFYFFLLFHL, the protein stability index in the data set with Saccharomyces cerevisiae [1] (setting [3]) worked out at 0.265 ± 0.051; in the data set with Saccharomyces cerevisiae [1] (setting [4]), 0.272 ± 0.036; in the data set with Saccharomyces cerevisiae [1] (setting [5]), 0.332 ± 0.034; in the data set on Saccharomyces cerevisiae [1] (setting [6]), 0.45 ± 0.045; in the data set with Saccharomyces cerevisiae [1] (setting [7]), 0.416 ± 0.015; in the data set with Saccharomyces cerevisiae [1] (setting [8]) it was 0.3115 ± 0.0019. Further, the protein stability index in the data set with Saccharomyces cerevisiae [1] (setting [9]) turned out to be 0.429 ± 0.037; with Saccharomyces cerevisiae [2] it was 0.375 ± 0.071.
